Experimental findings from PMC10176505, “PYK-SubstitutionOME: an integrated database containing allosteric coupling, ligand affinity and mutational, structural, pathological, bioinformatic and computational information about pyruvate kinase isozymes” (Database: The Journal of Biological Databases and Curation, 2023) are described below.

The subject of the data set is T1, C=C(OP(=O)(O)O)C(=O)O.
T1 construct: full-length liver isozyme; homotetramer; purified or partially purified
Briefly: enzyme kinetics, PEP concentration at half Vmax. The following applies: no allosteric effector; apparent affinity (not an association constant). The class given is biochemical, Homo sapiens. An excerpt: enzyme kinetics, PEP concentration at half Vmax on hLPYK | Ka-PEP (the kinetic equivalent to Kia-PEP), the apparent affinity for PEP

hLPYK (Homo sapiens), sequence (chain, as listed by the source): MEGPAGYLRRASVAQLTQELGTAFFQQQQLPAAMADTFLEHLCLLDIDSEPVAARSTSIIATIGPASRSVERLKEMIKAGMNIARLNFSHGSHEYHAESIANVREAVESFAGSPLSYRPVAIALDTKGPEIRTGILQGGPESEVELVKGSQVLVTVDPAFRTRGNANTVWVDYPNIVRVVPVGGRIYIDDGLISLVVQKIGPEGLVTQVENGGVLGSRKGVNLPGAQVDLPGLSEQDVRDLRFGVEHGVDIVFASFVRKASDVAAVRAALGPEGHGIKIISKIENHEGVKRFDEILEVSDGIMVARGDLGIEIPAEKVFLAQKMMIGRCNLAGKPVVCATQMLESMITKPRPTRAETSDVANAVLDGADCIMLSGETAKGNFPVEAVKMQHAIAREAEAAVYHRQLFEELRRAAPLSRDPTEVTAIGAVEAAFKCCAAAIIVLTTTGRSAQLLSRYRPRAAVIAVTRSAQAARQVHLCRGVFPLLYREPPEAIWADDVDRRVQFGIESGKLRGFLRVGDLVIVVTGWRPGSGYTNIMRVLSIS

In the case of hLPYK (Homo sapiens), the K0.5 came to 0.22 mM.
